The results in this text go back to the nanobody polyreactivity screen of Harvey et al. (2022).

The nature of this data set: yeast display, Sf9 membrane polyspecificity reagent, FACS + sequencing; frameworks hold sequencing errors. A digest of the protocol: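 In a synthetic yeast display library (Saccharomyces cerevisiae BJ5465), nanobody expression was induced with galactose for 36–48 hours. FACS gates were set low and high (top ~1%) using anti-HA fluorescence for expression and streptavidin fluorescence for binding of the Sf9 membrane reagent. Each polyreactivity label is drawn from the gate of origin.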
Take “QVQLVESGGGLVQAGGSLRLSCAASGFIFYYYAMGWYRQAPGKERELVAGIDKTGGSTYYADSVKGRFTISRDNAKNTVYFQMNSLKPEDTAVYYCAAGYFFPRLRFRNYAYVYWGQGTQVTVSS”: the “polyreactivity (PSR sort gate)” value is recorded as “high polyreactivity”.
Take “QVQLVESGGGLVQAGGSLRLSCAASGFIFYYYAMGWYRQAPGKERELVAVLAVSGSSTYYADSEKGRFTISRDNAKNIVFLQKNSLKPEDTAVYYCNADFWPYTGKYDYWGQGTQVTVSS”: the “polyreactivity (PSR sort gate)” value is “low polyreactivity”.
Next, “QVQLVESGGGLVQAGGSLRLSCAASGFIFYYYAMGWYRQATGKERELDASISSDGSTYYADSVKGRFTISRDNAKNTVYLQMNSLKPEDTAVYYCNADRYYPDDLSDGVGTYDYWGQGTQVTVSS”: “low polyreactivity”; “QVQLVESGGGLVQAGGSLRLSCAASGFIIAQYAMGWYRQAPGKERELVAGITSTGSTNYADSVKGRFTISRDNAKNTVYLQMNSLKPEDTAVYYCNTDYITASAVFDYDYWGQDTQVTVSS”: “low polyreactivity”; “QVQLVESGGGLVQAGGSLRLSCAASGFIIAYYAMGWYRQAPGKERELVAAISRRGGSTYYADSVKGRFTISRDNAKNTVYLQMNSLKPEDTAVYYCAKAHYLSDYNYWGQGTQVTVSS”: “high polyreactivity”.
In the case of “QVQLVESGGGLVQAGGSLRLSCAASGFIIGGYAMGWYRQAPGKERELVASITSGGRTYYADSVKGRFSISRDNAKNTVFLQMNSLKPEDTAVYDCAARQQTYYYKIYYWGQGSQVTVSS” it was “high polyreactivity”; in that of “QVQLVESGGGLVQAGGSLRLSCAASGFIIGVNDMGWYRQPPGKERELVAAITSGGNTNYADSVKGRFTISRDNAKNTVYLQMNSLKPEDTAVYYCIVDTRLPMDYWGQGTQVTVSS”, “low polyreactivity”.
Regarding “QVQLVESGGGLVQAGGSLRLSCAASGFIIPVYAMGWYRQAPGKERELVAAITYSGARTYYADSVKGRFTISRDNAKNTVYLQMNSLKPEDTAVYYCAAAPGYLKYSPGHYGYNYWGQGTQVTVSS”, the “polyreactivity (PSR sort gate)” value is listed as “high polyreactivity”.
In the case of “QVQLVESGGGLVQAGGSLRLSCAASGFIIYYNAMGWYRQAPGKEREFVAGISFSGDGRTYYADSVKGRFTISRDNAKNTVYLQMNSLKPEDTAVYYCAAPHRSRTHELDYWGQGTQVTVSS” it was “low polyreactivity”; in that of “QVQLVESGGGLVQAGGSLRLSCAASGFILGYNAMGWYRQAPGKERELVADITFSGGGTNYADSVKGRFTISRDNAKNSVYLQMNSLKPEDTAVYYCNAAAFSQLRVRYDYWGQGTQVTVSS”, “low polyreactivity”.
Next, “QVQLVESGGGLVQAGGSLRLSCAASGFILNQYAMGWYRQAPGKERELVAAISNGGSTNYADSVKGRFTISRDNAKNTVYLQMNSLKPEDTAVYYCAKDQSLTYSSVWGYDYWGQGTQVTVSS”: “low polyreactivity”; “QVQLVESGGGLVQAGGSLRLSCAASGFILQGYAMGWYRQAPGKERELVATITTSSRTYYADSVKGRFTISRDNAKNTVYLQMNRLKPEDTAVYYCDKSVYPYGYYYGQMDYWGQGTQVTVSS”: “high polyreactivity”.
With “QVQLVESGGGLVQAGGSLRLSCAASGFILSPYAMGWYRQAPGKERELGAVITISGGSTYYADSVKGRFTISRDNAKNTVYLQMNSLKPEDTAVYYCAADYYDLVYDYYYWGQGTQVTVSS”, the “polyreactivity (PSR sort gate)” value is “high polyreactivity”.
“QVQLVESGGGLVQAGGSLRLSCAASGFILSRYTMGWYRQAPGKERELVATISSGGRTYYADSVKGRFTISRDNAKNTVYLQMNSLKPEDTAVYYCAAAYTYWRIPGNRYLYDYWGQGTQVTVSS”: the “polyreactivity (PSR sort gate)” value was “high polyreactivity”.
Next, “QVQLVESGGGLVQAGGSLRLSCAASGFILSRYTMGWYRQAPGKERELVATISSGGRTYYADSVKGRFTISRDNAKNTVYLQMNSLKPEDTAVYYCAAAYTYWRISGNRYLYDYWGQGTQVTVSS”: “high polyreactivity”; “QVQLVESGGGLVQAGGSLRLSCAASGFILVGYAMGWYRQARGKERELVAAITSGGTTSYADAVKGSFIISRDNAKNTVYLQMISLKPEESAVYYCAAVQWDSSSKYYYWGQGTQVTVSS”: “low polyreactivity”; “QVQLVESGGGLVQAGGSLRLSCAASGFILYFNAMGWYRQAPGKERELVAAITSDGGSTYYADSVKGRFTISRDNAKNTVYLQMNSLKPEDTAVYYCAADASTWYTEEYWGQGTQVTVSS”: “low polyreactivity”.
On to “QVQLVESGGGLVQAGGSLRLSCAASGFILYFNAMGWYRQAPGKERELVAVISGTGVRTNYADSVKGRFTISRDNAKNTVYLQMYSLKPEDTAVYYCAAGYYSYRPRDYWGQGTQVTVSS”, for which the “polyreactivity (PSR sort gate)” value is on record as “low polyreactivity”.
Consider “QVQLVESGGGLVQAGGSLRLSCAASGFILYGNARGWYRQAPGKERELVAAISSSGRTNYADYVKGRFTISRDNAKNTVYLQMNRLKPEDTAVYYCADYVRAGYGMGYWGQGTQVTVSS”, for which the “polyreactivity (PSR sort gate)” value was “low polyreactivity”.
On to “QVQLVESGGGLVQAGGSLRLSCAASGFILYYNAMGWYRQAPGKERELVADISRRGTSTYYADSVKGRFTISRDNAKNTVYLQMNRLKPEDTAVYYCKAVPSARTQPYNGWGQGTQVTVSS”, for which the “polyreactivity (PSR sort gate)” value is recorded as “high polyreactivity”.
“QVQLVESGGGLVQAGGSLRLSCAASGFILYYYAMGWYRQAPGKERELVAAISSGGNTDYADSVKGRFTISRDNAKNTVYLQMNSLKPEDTAVYYCAARGYHYSYLRGDTGYYYWGQGTQVTVSS”: the “polyreactivity (PSR sort gate)” value is “low polyreactivity”.
In the case of “QVQLVESGGGLVQAGGSLRLSCAASGFINSDYAMGWYRPAPGKERELVAVITWRSGSTYYADSVKGRFTISRDYAKNTVYLQMNSLKPEDTAVYYCAARNYRNYSQGRRLGYNDWGQGTQVTVTS” it was “high polyreactivity”; in that of “QVQLVESGGGLVQAGGSLRLSCAASGFIQDLYVMGWYRQAPGKERELVAAISSVGSTYADSVKGRFTISRDNAKNTVYLQMNSLKPEDTAVYYCAKDGTDYDYNYWGQGTQVTVSS”, “low polyreactivity”; in that of “QVQLVESGGGLVQAGGSLRLSCAASGFISDWYAMGWFRQAPGKERELVATIDWLGGSTYAHSVKGRFTISRDNAKNTVYLQMNSLKPEDTAVYYCAADSYFIAWYGAPYAYDYWGQGTQVTVSS”, “low polyreactivity”.
With “QVQLVESGGGLVQAGGSLRLSCAASGFISPNAMGWYRQAPGKERELVAAISRSGGSTYYADSVKGRFTISRDNAKNTVYLQMNSLKTEDTAVYYCAAGRLYSYRRQYGYWGQGTQVTVSS”, the “polyreactivity (PSR sort gate)” value is “high polyreactivity”.
In the case of “QVQLVESGGGLVQAGGSLRLSCAASGFISPQNTMGWYRQAPGKERELVAAITSGGSTYYADSVKGRFTISRDNAKNTVYLLMNSLKPEDTAVYYCASRPYGTWTYGYWGQGTQVTVSS” it was “low polyreactivity”.
For the sequence “QVQLVESGGGLVQAGGSLRLSCAASGFISSINAMGWYRQAPGKERELVAGIRARGTSTYYADSVKGRFTISRDNAKNTVYLQMNSLKPEDTAVYYCAADFTYQGSSANDYWGQGTQVTVSS”, the “polyreactivity (PSR sort gate)” value is given as “low polyreactivity”.
Take “QVQLVESGGGLVQAGGSLRLSCAASGFISSYYAMGWYRQAPGKERELVAAITSGGRTYYADSVKGRFTISRDNAKNTDYLQMNSLKPEDTAVYYCGKYSRTNAFDYWGQGTQVTVSS”: the “polyreactivity (PSR sort gate)” value is “high polyreactivity”.
In the case of “QVQLVESGGGLVQAGGSLRLSCAASGFIVNVYAMVWYRQAPGKERELVAAISTSGSNTYYADSVKGRFTISLDNAKNTVYLQMNSLKPEDTAVYYCNAVRDRVRWHYYAVYYWGQGTQVTVSS” it was “high polyreactivity”; in that of “QVQLVESGGGLVQAGGSLRLSCAASGFIVVFNAMGWYRQAPGKERELVAAINGGDITNYADSVKGRFTISRDNAKNTVYLQMNSLKPEDTAVYYCAADGEDSMWTGYDYDYWGQGTQVTVSS”, “low polyreactivity”.
